The values that follow come from IntAct's records for PubMed 23007647.

B1: Krev interaction trapped protein 1 (Homo sapiens), O00522 (parent)
chain: MGNPENIEDAYVAVIRPKNTASLNSREYRAKSYEILLHEVPIEGQKKKRKKVLLETKLQGNSEITQGILDYVVETTKPISPANQGIRGKRVVLMKKFPLDGEKMGREASLFIVPSVVKDNTKYTYTPGCPIFYCLQDIMRVCSESSTHFATLTARMLIALDKWLDERHAQSHFIPALFRPSPLERIKTNVINPAYATESGQTENSLHMGYSALEIKSKMLALEKADTCIYNPLFGSDLQYTNRVDKVVINPYFGLGAPDYSKIQIPKQEKWQRSMSSVTEDKERQWVDDFPLHRSACEGDSELLSRLLSERFSVNQLDSDHWAPIHYACWYGKVEATRILLEKGKCNPNLLNGQLSSPLHFAAGGGHAEIVQILLNHPETDRHITDQQGRSPLNICEENKQNNWEEAAKLLKEAINKPYEKVRIYRMDGSYRSVELKHGNNTTVQQIMEGMRLSQETQQYFTIWICSENLSLQLKPYHKPLQHVRDWPEILAELTNLDPQRETPQLFLRRDVRLPLEVEKQIEDPLAILILFDEARYNLLKGFYTAPDAKLITLASLLLQIVYGNYESKKHKQGFLNEENLKSIVPVTKLKSKAPHWTNRILHEYKNLSTSEGVSKEMHHLQRMFLQNCWEIPTYGAAFFTGQIFTKASPSNHKVIPVYVGVNIKGLHLLNMETKALLISLKYGCFMWQLGDTDTCFQIHSMENKMSFIVHTKQAGLVVKLLMKLNGQLMPTERNS
B2: Protein HEG homolog 1 (Homo sapiens), Q9ULI3 (parent)
chain: MASPRASRWPPPLLLLLLPLLLLPPAAPGTRDPPPSPARRALSLAPLAGAGLELQLERRPEREPPPTPPRERRGPATPGPSYRAPEPGAATQRGPSGRAPRGGSADAAWKHWPESNTEAHVENITFYQNQEDFSTVSSKEGVMVQTSGKSHAASDAPENLTLLAETADARGRSGSSSRTNFTILPVGYSLEIATALTSQSGNLASESLHLPSSSSEFDERIAAFQTKSGTASEMGTERAMGLSEEWTVHSQEATTSAWSPSFLPALEMGELTTPSRKRNSSGPDLSWLHFYRTAASSPLLDLSSSSESTEKLNNSTGLQSSSVSQTKTMHVATVFTDGGPRTLRSLTVSLGPVSKTEGFPKDSRIATTSSSVLLSPSAVESRRNSRVTGNPGDEEFIEPSTENEFGLTSLRWQNDSPTFGEHQLASSSEVQNGSPMSQTETVSRSVAPMRGGEITAHWLLTNSTTSADVTGSSASYPEGVNASVLTQFSDSTVQSGGSHTALGDRSYSESSSTSSSESLNSSAPRGERSIAGISYGQVRGTAIEQRTSSDHTDHTYLSSTFTKGERALLSITDNSSSSDIVESSTSYIKISNSSHSEYSSFFHAQTERSNISSYDGEYAQPSTESPVLHTSNLPSYTPTINMPNTSVVLDTDAEFVSDSSSSSSSSSSSSSSGPPLPLPSVSQSHHLFSSILPSTRASVHLLKSTSDASTPWSSSPSPLPVSLTTSTSAPLSVSQTTLPQSSSTPVLPRARETPVTSFQTSTMTSFMTMLHSSQTADLKSQSTPHQEKVITESKSPSLVSLPTESTKAVTTNSPLPPSLTESSTEQTLPATSTNLAQMSPTFTTTILKTSQPLMTTPGTLSSTASLVTGPIAVQTTAGKQLSLTHPEILVPQISTEGGISTERNRVIVDATTGLIPLTSVPTSAKEMTTKLGVTAEYSPASRSLGTSPSPQTTVVSTAEDLAPKSATFAVQSSTQSPTTVSSSASVNSCAVNPCLHNGECVADNTSRGYHCRCPPSWQGDDCSVDVNECLSNPCPSTAMCNNTQGSFICKCPVGYQLEKGICNLVRTFVTEFKLKRTFLNTTVEKHSDLQEVENEITKTLNMCFSALPSYIRSTVHASRESNAVVISLQTTFSLASNVTLFDLADRMQKCVNSCKSSAEVCQLLGSQRRIFRAGSLCKRKSPECDKDTSICTDLDGVALCQCKSGYFQFNKMDHSCRACEDGYRLENETCMSCPFGLGGLNCGNPYQLITVVIAAAGGGLLLILGIALIVTCCRKNKNDISKLIFKSGDFQMSPYAEYPKNPRSQEWGREAIEMHENGSTKNLLQMTDVYYSPTSVRNPELERNGLYPAYTGLPGSRHSCIFPGQYNPSFISDESRRRDYF

Variants of B1 are the subject of assay [1]. Conditions: with rap1a_mouse Rap1a.
The variants in the assay “heg1_human HEG1, Q9ULI3” derive from B1. The conditions noted are these: with heg1_human HEG1, Q9ULI3.
In the assay “ccm2_human CCM2, Q9BSQ5” the parent is B1. The conditions noted are these: with ccm2_human CCM2, Q9BSQ5.
Sequence of ccm2_human CCM2, Q9BSQ5 (Q9BSQ5 whole entry): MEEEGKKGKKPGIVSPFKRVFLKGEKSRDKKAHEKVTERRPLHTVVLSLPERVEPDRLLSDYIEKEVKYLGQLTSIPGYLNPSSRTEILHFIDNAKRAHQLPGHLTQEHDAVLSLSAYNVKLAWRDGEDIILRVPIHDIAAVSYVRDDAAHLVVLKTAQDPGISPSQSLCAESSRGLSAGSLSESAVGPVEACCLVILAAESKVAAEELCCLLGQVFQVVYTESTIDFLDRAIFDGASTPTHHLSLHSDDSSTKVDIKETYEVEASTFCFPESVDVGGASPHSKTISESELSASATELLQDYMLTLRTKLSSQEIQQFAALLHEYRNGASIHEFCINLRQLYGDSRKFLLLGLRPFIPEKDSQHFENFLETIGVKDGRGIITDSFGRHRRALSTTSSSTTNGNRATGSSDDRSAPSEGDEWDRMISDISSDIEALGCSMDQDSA
In assay [2] the parent is B2. Conditions: with krit1_human KRIT1, O00522.

Consider R452E, for which, in assay [1], the “effect of a mutation on the interaction” value is given as “disrupting interaction strength”.
For L717A;L721A, the “effect of a mutation on the interaction” value in the assay with heg1_human HEG1, Q9ULI3 was “decreasing interaction strength”; in the assay with ccm2_human CCM2, Q9BSQ5, “with no effect”; in assay [1], “with no effect”.
Turning to N1367A;F1370A, the “effect of a mutation on the interaction” value in assay [2] was “with no effect”.
